The target of this assay is HLA class I on primary cervical cancer cells CA1 and CA2 (haplotype HLA A1) (human). The experiment in a line: cell-based or functional assay.

Consider “Mab specific for monomorphic HLA class I W6/32 (antibody)”, for which the percent killing of CA1 target, AAV/E6/Neo (purified virus) plus anti-class I antibodies (36.1+/-1.4% without antibody) was 0.4%.

Values taken from patent US20060029943A1.
